IntAct's records for PubMed 16098514

B1: GTPase RhebL1 (Homo sapiens), Q8TAI7 (parent)
chain: MPLVRYRKVVILGYRCVGKTSLAHQFVEGEFSEGYDPTVENTYSKIVTLGKDEFHLHLVDTAGQDEYSILPYSFIIGVHGYVLVYSVTSLHSFQVIESLYQKLHEGHGKTRVPVVLVGNKADLSPEREVQAVEGKKLAESWGATFMESSARENQLTQGIFTKVIQEIARVENSYGQERRCHLM

Variants of: B1
Settings: with mtor_human MTOR

Row | Variant | effect of a mutation on the interaction
1 | N41A | disrupting interaction
